Laboratory results published in patent US5952216.

Columns and labels:
Assay in all cases: ELISA on Sf9 extract, absorbance at 405 nm normalized to H16.D9
[1] = molecular target: HPV16 L1 virus-like particles (human papillomavirus type 16) (UniProt P03101)
[2] = molecular target: HPV11 L1 virus-like particles (human papillomavirus type 11) (UniProt P04012)
[3] = molecular target: HPV16:D202H L1 (human papillomavirus type 16) (UniProt P03101)
[4] = molecular target: HPV16:D202E virus-like particles (human papillomavirus type 16) (UniProt P03101)

Substance	normalized ELISA value (normalized with H16.D9) [1]	normalized ELISA value (normalized with H16.D9) [2]	normalized ELISA value (normalized with H16.D9) [3]	normalized ELISA value (normalized with H16.D9) [4]
MAb H16.U4 (antibody)	0.79	0.06	0.21	0.59
MAb H16.V5 (antibody)	1.08	0.06	0.19	0.15
